{"source": "IntAct's records for PubMed 25910212", "parents": {"B1": {"name": "Progranulin (Homo sapiens), P28799 (parent)", "chain": "MWTLVSWVALTAGLVAGTRCPDGQFCPVACCLDPGGASYSCCRPLLDKWPTTLSRHLGGPCQVDAHCSAGHSCIFTVSGTSSCCPFPEAVACGDGHHCCPRGFHCSADGRSCFQRSGNNSVGAIQCPDSQFECPDFSTCCVMVDGSWGCCPMPQASCCEDRVHCCPHGAFCDLVHTRCITPTGTHPLAKKLPAQRTNRAVALSSSVMCPDARSRCPDGSTCCELPSGKYGCCPMPNATCCSDHLHCCPQDTVCDLIQSKCLSKENATTDLLTKLPAHTVGDVKCDMEVSCPDGYTCCRLQSGAWGCCPFTQAVCCEDHIHCCPAGFTCDTQKGTCEQGPHQVPWMEKAPAHLSLPDPQALKRDVPCDNVSSCPSSDTCCQLTSGEWGCCPIPEAVCCSDHQHCCPQGYTCVAEGQCQRGSEIVAGLEKMPARRASLSHPRDIGCDQHTSCPVGQTCCPSLGGSWACCQLPHAVCCEDRQHCCPAGYTCNVKARSCEKEVVSAQPATFLARSPHVGVKDVECGEGHFCHDNQTCCRDNRQGWACCPYRQGVCCADRRHCCPAGFRCAARGTKCLRREAPRWDAPLRDPALRQLL", "partner": "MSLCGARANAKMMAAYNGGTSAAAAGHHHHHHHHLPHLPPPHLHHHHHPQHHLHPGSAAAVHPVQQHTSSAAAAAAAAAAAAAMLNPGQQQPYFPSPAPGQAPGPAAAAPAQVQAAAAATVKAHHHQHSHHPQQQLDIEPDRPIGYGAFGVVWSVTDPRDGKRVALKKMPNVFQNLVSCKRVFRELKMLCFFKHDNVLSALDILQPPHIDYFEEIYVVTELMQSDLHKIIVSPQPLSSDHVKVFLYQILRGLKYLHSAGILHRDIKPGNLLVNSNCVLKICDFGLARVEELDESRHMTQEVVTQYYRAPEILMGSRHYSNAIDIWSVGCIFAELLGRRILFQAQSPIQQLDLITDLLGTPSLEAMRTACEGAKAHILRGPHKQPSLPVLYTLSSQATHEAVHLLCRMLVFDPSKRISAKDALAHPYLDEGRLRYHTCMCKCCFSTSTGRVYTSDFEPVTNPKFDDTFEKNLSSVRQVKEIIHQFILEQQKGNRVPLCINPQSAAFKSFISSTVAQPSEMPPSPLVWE"}, "B2": {"name": "Bleomycin hydrolase (Homo sapiens), Q13867 (parent)", "chain": "MSSSGLNSEKVAALIQKLNSDPQFVLAQNVGTTHDLLDICLKRATVQRAQHVFQHAVPQEGKPITNQKSSGRCWIFSCLNVMRLPFMKKLNIEEFEFSQSYLFFWDKVERCYFFLSAFVDTAQRKEPEDGRLVQFLLMNPANDGGQWDMLVNIVEKYGVIPKKCFPESYTTEATRRMNDILNHKMREFCIRLRNLVHSGATKGEISATQDVMMEEIFRVVCICLGNPPETFTWEYRDKDKNYQKIGPITPLEFYREHVKPLFNMEDKICLVNDPRPQHKYNKLYTVEYLSNMVGGRKTLYNNQPIDFLKKMVAASIKDGEAVWFGCDVGKHFNSKLGLSDMNLYDHELVFGVSLKNMNKAERLTFGESLMTHAMTFTAVSEKDDQDGAFTKWRVENSWGEDHGHKGYLCMTDEWFSEYVYEVVVDRKHVPEEVLAVLEQEPIILPAWDPMGALAE"}, "B3": {"name": "Retinoic acid receptor RXR-gamma (Homo sapiens), P48443 (parent)", "chain": "MYGNYSHFMKFPAGYGGSPGHTGSTSMSPSAALSTGKPMDSHPSYTDTPVSAPRTLSAVGTPLNALGSPYRVITSAMGPPSGALAAPPGINLVAPPSSQLNVVNSVSSSEDIKPLPGLPGIGNMNYPSTSPGSLVKHICAICGDRSSGKHYGVYSCEGCKGFFKRTIRKDLIYTCRDNKDCLIDKRQRNRCQYCRYQKCLVMGMKREAVQEERQRSRERAESEAECATSGHEDMPVERILEAELAVEPKTESYGDMNMENSTNDPVTNICHAADKQLFTLVEWAKRIPHFSDLTLEDQVILLRAGWNELLIASFSHRSVSVQDGILLATGLHVHRSSAHSAGVGSIFDRVLTELVSKMKDMQMDKSELGCLRAIVLFNPDAKGLSNPSEVETLREKVYATLEAYTKQKYPEQPGRFAKLLLRLPALRSIGLKCLEHLFFFKLIGDTPIDTFLMEMLETPLQIT", "partner": "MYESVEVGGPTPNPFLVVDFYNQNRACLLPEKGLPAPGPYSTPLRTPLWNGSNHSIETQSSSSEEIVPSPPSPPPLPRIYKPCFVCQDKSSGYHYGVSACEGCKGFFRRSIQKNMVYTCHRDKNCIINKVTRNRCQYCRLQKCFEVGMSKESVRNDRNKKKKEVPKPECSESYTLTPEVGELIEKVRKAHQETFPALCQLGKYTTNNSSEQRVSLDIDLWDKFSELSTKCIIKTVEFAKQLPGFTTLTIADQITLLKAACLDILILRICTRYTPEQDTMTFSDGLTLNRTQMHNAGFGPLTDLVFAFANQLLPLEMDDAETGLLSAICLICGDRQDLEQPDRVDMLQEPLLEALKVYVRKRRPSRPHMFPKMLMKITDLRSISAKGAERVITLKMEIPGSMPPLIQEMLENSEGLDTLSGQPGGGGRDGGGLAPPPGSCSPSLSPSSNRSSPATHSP"}, "B4": {"name": "U4/U6 small nuclear ribonucleoprotein Prp31 (Homo sapiens), Q8WWY3 (parent)", "chain": "MSLADELLADLEEAAEEEEGGSYGEEEEEPAIEDVQEETQLDLSGDSVKTIAKLWDSKMFAEIMMKIEEYISKQAKASEVMGPVEAAPEYRVIVDANNLTVEIENELNIIHKFIRDKYSKRFPELESLVPNALDYIRTVKELGNSLDKCKNNENLQQILTNATIMVVSVTASTTQGQQLSEEELERLEEACDMALELNASKHRIYEYVESRMSFIAPNLSIIIGASTAAKIMGVAGGLTNLSKMPACNIMLLGAQRKTLSGFSSTSVLPHTGYIYHSDIVQSLPPDLRRKAARLVAAKCTLAARVDSFHESTEGKVGYELKDEIERKFDKWQEPPPVKQVKPLPAPLDGQRKKRGGRRYRKMKERLGLTEIRKQANRMSFGEIEEDAYQEDLGFSLGHLGKSGSGRVRQTQVNEATKARISKTLQRTLQKQSVVYGGKSTIRDRSSGTASSVAFTPLQGLEIVNPQAAEKKVAEANQKYFSSMAEFLKVKGEKSGLMST", "partner": "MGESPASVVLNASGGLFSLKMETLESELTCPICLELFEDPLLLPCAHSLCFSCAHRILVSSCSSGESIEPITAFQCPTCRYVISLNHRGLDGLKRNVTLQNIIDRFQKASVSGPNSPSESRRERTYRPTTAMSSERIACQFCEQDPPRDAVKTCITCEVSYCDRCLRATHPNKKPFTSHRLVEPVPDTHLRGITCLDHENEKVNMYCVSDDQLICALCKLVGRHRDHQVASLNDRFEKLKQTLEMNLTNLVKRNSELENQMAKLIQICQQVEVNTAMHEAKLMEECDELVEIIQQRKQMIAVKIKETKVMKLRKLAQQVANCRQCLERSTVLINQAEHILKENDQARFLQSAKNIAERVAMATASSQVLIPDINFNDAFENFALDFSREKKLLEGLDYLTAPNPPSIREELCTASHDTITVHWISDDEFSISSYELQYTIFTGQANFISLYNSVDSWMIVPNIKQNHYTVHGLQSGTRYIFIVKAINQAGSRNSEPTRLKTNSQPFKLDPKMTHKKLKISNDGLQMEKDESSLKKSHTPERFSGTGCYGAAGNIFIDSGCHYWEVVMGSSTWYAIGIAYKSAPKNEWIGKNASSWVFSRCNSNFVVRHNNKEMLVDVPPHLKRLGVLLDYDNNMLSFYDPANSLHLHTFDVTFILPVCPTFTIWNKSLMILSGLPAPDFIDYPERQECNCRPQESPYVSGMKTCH"}, "B5": {"name": "ATP synthase mitochondrial F1 complex assembly factor 2 (Homo sapiens), Q8N5M1 (parent)", "chain": "MWRSCLRLRDGGRRLLNRPAGGPSASMSPGPTIPSPARAYAPPTERKRFYQNVSITQGEGGFEINLDHRKLKTPQAKLFTVPSEALAIAVATEWDSQQDTIKYYTMHLTTLCNTSLDNPTQRNKDQLIRAAVKFLDTDTICYRVEEPETLVELQRNEWDPIIEWAEKRYGVEISSSTSIMGPSIPAKTREVLVSHLASYNTWALQGIEFVAAQLKSMVLTLGLIDLRLTVEQAVLLSRLEEEYQIQKWGNIEWAHDYELQELRARTAAGTLFIHLCSESTTVKHKLLKE", "partner": "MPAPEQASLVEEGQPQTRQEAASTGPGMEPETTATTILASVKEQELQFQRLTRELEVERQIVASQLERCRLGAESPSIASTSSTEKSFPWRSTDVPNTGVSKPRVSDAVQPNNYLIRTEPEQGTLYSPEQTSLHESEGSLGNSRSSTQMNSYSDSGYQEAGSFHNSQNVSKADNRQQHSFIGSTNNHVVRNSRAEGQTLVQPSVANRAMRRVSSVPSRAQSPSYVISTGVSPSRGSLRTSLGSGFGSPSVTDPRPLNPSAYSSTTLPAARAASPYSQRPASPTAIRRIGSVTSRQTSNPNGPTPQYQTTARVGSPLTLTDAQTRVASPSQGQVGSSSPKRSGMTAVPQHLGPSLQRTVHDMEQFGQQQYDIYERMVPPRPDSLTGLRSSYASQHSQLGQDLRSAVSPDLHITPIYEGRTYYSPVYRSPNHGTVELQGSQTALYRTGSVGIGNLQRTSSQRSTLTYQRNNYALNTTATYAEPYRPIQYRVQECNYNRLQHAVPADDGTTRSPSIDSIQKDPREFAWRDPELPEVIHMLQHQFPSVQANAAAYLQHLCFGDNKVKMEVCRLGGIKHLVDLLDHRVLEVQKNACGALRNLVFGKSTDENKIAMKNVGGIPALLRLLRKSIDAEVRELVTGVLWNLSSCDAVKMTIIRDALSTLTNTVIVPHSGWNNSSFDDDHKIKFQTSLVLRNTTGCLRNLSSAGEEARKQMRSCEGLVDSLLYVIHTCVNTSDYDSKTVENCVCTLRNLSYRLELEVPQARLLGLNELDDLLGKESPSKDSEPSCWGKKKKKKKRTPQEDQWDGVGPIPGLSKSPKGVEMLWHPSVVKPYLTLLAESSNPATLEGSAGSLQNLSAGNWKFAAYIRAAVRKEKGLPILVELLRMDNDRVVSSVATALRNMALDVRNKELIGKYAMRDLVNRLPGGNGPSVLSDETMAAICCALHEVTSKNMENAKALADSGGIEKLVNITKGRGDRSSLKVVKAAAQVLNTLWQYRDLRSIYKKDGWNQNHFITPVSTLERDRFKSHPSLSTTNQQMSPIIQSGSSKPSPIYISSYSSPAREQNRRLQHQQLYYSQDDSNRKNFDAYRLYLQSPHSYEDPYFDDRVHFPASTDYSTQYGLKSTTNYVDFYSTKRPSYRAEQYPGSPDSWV"}, "B6": {"name": "ATP synthase mitochondrial F1 complex assembly factor 2 (Homo sapiens), Q8N5M1 (parent)", "chain": "B5 chain", "partner": "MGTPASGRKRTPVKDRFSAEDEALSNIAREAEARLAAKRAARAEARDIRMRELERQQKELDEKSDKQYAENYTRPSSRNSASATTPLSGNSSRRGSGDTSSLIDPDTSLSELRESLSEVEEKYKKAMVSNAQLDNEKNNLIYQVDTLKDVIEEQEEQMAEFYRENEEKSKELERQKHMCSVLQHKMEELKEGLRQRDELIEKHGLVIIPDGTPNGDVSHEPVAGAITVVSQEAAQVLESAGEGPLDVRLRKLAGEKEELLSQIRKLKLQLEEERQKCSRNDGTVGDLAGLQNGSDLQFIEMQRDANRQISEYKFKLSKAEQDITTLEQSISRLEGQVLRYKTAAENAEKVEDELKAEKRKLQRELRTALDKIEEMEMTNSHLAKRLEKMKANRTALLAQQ"}}, "data": [{"variants_of": "B1", "conditions": "with nlk_human NLK", "values": [{"variant": "P248L", "effect of a mutation on the interaction": "with no effect"}]}, {"variants_of": "B2", "conditions": "with nud12_human NUDT12, Q9BQG2", "values": [{"variant": "I443V", "effect of a mutation on the interaction": "with no effect"}]}, {"variants_of": "B3", "conditions": "with RARA", "values": [{"variant": "G14S", "effect of a mutation on the interaction": "with no effect"}]}, {"variants_of": "B4", "conditions": "with MID2, Q9UJV3-2", "values": [{"variant": "L107V", "effect of a mutation on the interaction": "with no effect"}]}, {"variants_of": "B5", "conditions": "with PKP4, Q99569-2", "values": [{"variant": "W94R", "effect of a mutation on the interaction": "disrupting interaction strength"}]}, {"variants_of": "B6", "conditions": "with LRRFIP2, Q9Y608-2", "values": [{"variant": "W94R", "effect of a mutation on the interaction": "disrupting interaction strength"}]}]}
